Target: PKA catalytic subunit (Mus musculus, UniProt P05132)
Assay: SPR

Row | Kd | Binder
1 | 0.6 nM | RIIβ 102-265 (protein) PVINRFTRRASVCAEAYNPDEEEDDAESRIIHPKTDDQRNRLQEACKDILLFKNLDPEQMSQVLDAMFEKLVKEGEHVIDQGDDGDNFYVIDRGTFDIYVKCDGVGRCVGNYDNRGSFGELALMYNTPRAATITATSPGALWGLDRVTFRRIIVKNNAKKRKMY
2 | 11.3 nM | RIIβ 108-268 (protein) TRRASVCAEAYNPDEEEDDAESRIIHPKTDDQRNRLQEACKDILLFKNLDPEQMSQVLDAMFEKLVKEGEHVIDQGDDGDNFYVIDRGTFDIYVKCDGVGRCVGNYDNRGSFGELALMYNTPRAATITATSPGALWGLDRVTFRRIIVKNNAKKRKMYESF

From article PMC3435109 (2012)
